Measurements from patent CN1827647A (SHANGHAI ZHANGJIANG BIO TECH C, dated 2006).

Molecular target: T1, EGFR蛋白 (表皮生长因子受体, 购自晶美生物公司) (UniProt P00533 25-645, limits assumed)
T1 construct: Bought protein used as the coating antigen; also called c-erbB1/Her1
Assay: Scatchard analysis; concluding sentence on the result

B1: 3C6单克隆抗体 (重组人源抗EGFR单克隆抗体, produced by CHO cell line 3C6) (antibody, V domains shown)
VH: QVQLKESGPGLVAPSQSLSITCTVSGFSLTNYGVHWVRQPPGKGLEWLGVIWSGGNTDYNTPFTSRLNISKDNSKSQVFLRMYSLQTDDTARYYCARALTYYDYEFAYWGQGTLVTVSS
VL: not shown
Kd: ~1 nM
